The record followed here is US20250263490A1 (VIB VZW, published 2025).

The target of test [1] is T1, recombinant human domain 1-3His6 of the cation-independent mannose-6-phosphate receptor (human, UniProt P11717 41-467).
T1 construct: Biotinylated (NHS-PEG4-biotin) for BLI; Glycosylated; also called hDom1-3His6; hCI-M6PRD1-D3
The test is described as follows: BLI exp 1, dissoc pH 6. The method, then:
(§1) For each of the 11 anti-CI-M6PR VHHs, a biolayer interferometry (BLI) experiment was performed in which the hDom₁₋₃His₆ was biotinylated and coupled to streptavidin biosensor tips. Afterwards, the tips were incubated with serially diluted VHHs during the association phase and dissociation was performed at pH 7.4. Similarly, dissociation was performed at pH 7.0, pH 6.0 and pH 5.0 as well after regeneration of the biosensor tips. […] The anti-CI-M6PR antibody (clone 2G11) and GBP were used as positive and negative controls, respectively.
(§2) Analysis of the binding kinetics was performed using an Octet Red96 (FortéBio) device with Streptavidin SA Biosensor tips (VWR 733-2145). Therefore, 1 mL of human domain₁₋₃His₆ (0.5 mg/mL in 50 mM MES, 150 mM NaCl, pH 6.5) was incubated at room temperature for 30 minutes with EZ-Link™ NHS-PEG4-Biotin (1 mg) (Thermo Fischer A39259) and NaHCO₃ (100 mM). Biotinylated human domain₁₋₃His₆ was purified using a Zeba spin desalting Column™ (7K MWCO, 2 mL, Thermo Fischer 89890) and 1 μg/mL was used for immobilization on the Streptavidin SA Biosensor tips. The loaded tips were dipped into a particular anti-CI-M6PR VHH solution, serially diluted in kinetics buffer (0.2M NaH₂PO₄, 0.1M Na⁺ citrate, 0.01% BSA, 0.002% Tween20, pH 7.4). This was followed by dissociation of the particular anti-CI-M6PR VHH in kinetics buffer of pH 7.4, followed by regeneration in Glycine (10 mM, pH 3) and neutralisation. Same cycle was repeated but the dissociation was performed at pH 7.0, 6.0, 5.0, 4.5 and 4.0. A reference well and reference sensors were subtracted from ligand sensors afterwards and Savitsky-Golay filtering was applied on the data. Fitting of the data was performed using a 1:1 model, grouped per pH of dissociation.

Test [2] has as its target T1, recombinant human domain 1-3His6 of the …. The test is described as follows: ELISA on coated antigen, 2nd of 2 repeats. The method, then:
(§3) FIGS. 4A-4B. Affinity of anti-CI-M6PR VHHs for recombinant human CI-M6PR Domain 1-3His₆ determined by ELISA. A & B. Measurements for each of the 11 anti-CI-M6PR VHHs in serial dilution binding to the coated human CI-M6PR Domain 1-3His₆ antigen. Detection was performed using an anti-VHH antibody coupled to HRP, and measured as the absorbance of the TMB substrate at 450 nm, correlating to the amount of bound VHH as plotted at the Y-axis. The Log₁₀ concentrations of the serially diluted VHHs were plotted at the X-axis. […] A & B represent replicates but using a different concentration of human CI-M6PR Domain 1-3His₆ (in (FIG. 4A): 0-0.75 μM and in (FIG. 4B): 0-1 μM).
(§4) We evaluated the affinity of the VHHs against the hDom₁₋₃His₆ using ELISA. Coated hDom₁₋₃His₆ was incubated with serially diluted VHH that was afterwards detected using an anti-VHH antibody, coupled to HRP.
(In an ELISA, binding on a coated surface is turned into a signal by an enzyme label.)

Test [3] shares this target. The test is described as follows: BLI exp 2, dissoc pH 6. As for the experimental part: as §1
Analysis of the binding kinetics was performed using an Octet Red96 (FortéBio) device with Streptavidin SA Biosensor tips (VWR, 733-2145). To this end, 1 mL of hCI-M6PR_D1-D3 (0.5 mg/mL in 50 mM MES, 150 mM NaCl, pH 6.5) was incubated at room temperature for 30 minutes with a two-fold molar excesses of EZ-Link™ NHS-PEG₄-Biotin (Thermo Fischer, A39259) and NaHCO₃ (100 mM, pH 8.3). Biotinylated hCIMPR_D1-D3 was purified using a Zeba spin desalting column (Thermo Fischer, 89890) and protein concentration was calculated by measuring the absorbance at 280 nm (extinction coefficient 50320 M¹ cm⁻¹). Two-fold biotin-labelled antigen was loaded on the tips (2.5 μg/mL) and subsequently dipped into a particular anti-CI-M6PR VHH-containing solution (ranging from 0-100 nM). Serial VHH dilutions were made in kinetics buffer (0.2 M Na₂HPO₄, 0.1 M Na⁺ citrate, 0.01% BSA, 0.002% Tween20, pH 7.4). After association (100 sec), dissociation was conducted (500 sec) for each anti-CI-M6PR VHH in the kinetics buffer, followed by biosensor regeneration in glycine (10 mM, pH 3) and neutralisation. The same cycle was repeated with dissociation performed in kinetics buffer of pH 7.0, 6.5, 6.0, 5.5, and 5.0.
A reference well and reference sensors were subtracted from ligand sensors afterwards and Savitsky-Golay filtering was applied on the data. Fitting of the data was performed using a 1:1 model, grouped per dissociation pH.

For test [4] the target is unchanged. The test is described as follows: BLI exp 1, dissoc pH 7. The method, then:
as §1, §2

Test [5] has the same target. The test is described as follows: ELISA on coated antigen, 1st of 2 repeats. The method, then: as §3, §4
The target is the same in test [6]. The test is described as follows: BLI at pH 7.4, 1st of 2 repeats. As for the experimental part:
as §1, §2

For test [7] the target is unchanged. The test is described as follows: BLI exp 1, dissoc pH 5. As for the experimental part:
as §1, §2

B1: anti-CI-M6PR VHH11 (VHH)
VHH: QVQLQESGGGLVQAGDSLKLSCTASGPTFSEITGGWFRQVPGKEREFVASISSTGITTYYTDSVKGRFTVSRDNAKNTMYLQMNSLKPEDTGVYYCAARSTSRSIAITVGYDYWGQGTQVTVSS
notes: His6-tagged; made in Pichia pastoris
Broadly, the Kd is the equilibrium constant for the complex coming apart. In general, koff refers to the first-order rate constant of dissociation. One may read the kon as the second-order rate constant of association. As usually defined, the EC50 is the concentration needed to bring the measured effect to its halfway point. Turning to B1, the Kd in test [1] turned out to be 34.2 nM; in test [4] it was 20.3 nM; in test [6], 41.4 nM; in test [7], 113 nM. In addition, the koff was 0.00665 s⁻¹ in test [1]; 0.00665 s⁻¹ in test [3]; 0.00394 s⁻¹ in test [4]; 0.00317 s⁻¹ in test [6]; 0.0253 s⁻¹ in test [7]. The kon in test [1] worked out at 195000 M⁻¹ s⁻¹; in test [3], 195000 M⁻¹ s⁻¹; in test [4], 194000 M⁻¹ s⁻¹; in test [6] it was 76700 M⁻¹ s⁻¹; in test [7], 225000 M⁻¹ s⁻¹. The EC50 in test [2] amounted to 30.5 nM; in test [5], 0.249 nM.

B2: anti-CI-M6PR VHH10 (VHH)
VHH: QVQLQESGGGSVQAGGSLRLSCAPAGRTFSRIRMGWFRQAPGKEREFVAAISSGGLSYYADSMKGRFTISRDNAKNTVLLQMNSLEPDDTAVYYCAAVLNDYIDDYVARNPTLYDYWGQGTQVTVSS
notes: as for B1
Take B2: the koff in test [1] is 0.00205 s⁻¹; in test [3] it was 0.00205 s⁻¹; in test [4], 0.00148 s⁻¹; in test [6], 0.00177 s⁻¹; in test [7], 0.0106 s⁻¹. The kon in test [1] turned out to be 39100 M⁻¹ s⁻¹; in test [3] it was 39100 M⁻¹ s⁻¹; in test [4], 99300 M⁻¹ s⁻¹; in test [6] it was 38100 M⁻¹ s⁻¹; in test [7], 91100 M⁻¹ s⁻¹. In addition, the EC50 in test [2] was determined as 0.224 nM; in test [5], 0.0657 nM. Moreover, in test [6], the Kd turned out to be 46.3 nM.

B3: anti-CI-M6PR VHH9 (VHH)
VHH: QVQLQESGGGLVQAGGSLRLSCAASGTILSIKTMGWYRQAPGKEREWVATITSSSIPMYADSVKGRFTISRDDAKNTVYLQMNSLKPEDTGVYYCNAPWTDYWGQGTQVTVSS
notes: as for B1
For B3, the Kd in test [1] is 0.674 nM; in test [4], 0.476 nM; in test [6], 0.282 nM; in test [7], 84.1 nM. Also, the koff in test [1] was found to be 0.00122 s⁻¹; in test [3], 0.000122 s⁻¹; in test [4] it was 0.00051 s⁻¹; in test [6] it was 0.000444 s⁻¹; in test [7], 0.0496 s⁻¹. Also, the kon in test [1] turned out to be 1.81e+06 M⁻¹ s⁻¹; in test [3], 615000 M⁻¹ s⁻¹; in test [4], 1.07e+06 M⁻¹ s⁻¹; in test [6] it was 1.57e+06 M⁻¹ s⁻¹; in test [7], 590000 M⁻¹ s⁻¹. The values for the EC50 in test [2] and in test [5] were 0.251 nM and 0.00642 nM, respectively.
